Source: patent publication US20090118165A1 (CASE WESTERN RESERVE UNIVERSITY, published 2009)
Where no end group is shown, it is not given here. The star is where a group is joined. Biotin = O=C1N[C@H]2[C@H](CS[C@H]2CCCCC(=O)*)N1

Target: T1, Bax (endogenous, in lysate of human Dami megakaryocytic cells) (human, UniProt Q07812 1-192, limits assumed)
T1 construct: Endogenous protein in a cell lysate
Test: pull-down of biotin-labeled peptide with streptavidin beads from Dami cell lysate, Western blot with anti-Bax antibody
Description: FIG. 1 illustrates Western Blots of Dami cell lysates incubated in the absence or presence of 200 μM biotin-labeled peptides. The peptides were: KLPVM (SEQ ID NO:8) (scrambled negative control), VPMLK (SEQ ID NO:2) (human version), VPTLK (SEQ ID NO:5) (mouse version), and VPALR (SEQ ID NO:6) (rat version). Immuno-precipitation was performed with streptavidin beads. Western blot analysis of immune precipitated samples were performed with anti-Bax polyclonal antibody.
Co-precipitation was performed as previously described (Yoshida, T., et al., Bax-inhibiting peptide derived from mouse and rat Ku70. Biochem Biophys Res Commun, 2004. 321(4): p. 961-6). […] After the precleaning of 200 μl of sample with 20 μl of streptavidin beads (Amersham-Pharmacia Biotech) at 4° C. for 1 h, the samples were incubated with 200 μM of various biotin-labeled peptides (biotin-KLPVM (SEQ ID NO:8), VPMLK (SEQ ID NO:2), VPTLK (SEQ ID NO:5) or VPALR (SEQ ID NO:6) for 2 h. Streptavidin beads (20 μl) were added to the samples and the mixtures were incubated at 4° C. After 2 h of incubation, the beads were washed with 100 μl of Chaps buffer 3 times by centrifugation (1000 rpm, at 4° C., 15 sec). The beads were boiled in 40 μl of Laemmli buffer and the eluted proteins (20 μl) were analyzed by Western blotting with anti-human Bax polyclonal antibody (BD-Pharmingen). […]

T1 sequence (Q07812 whole entry): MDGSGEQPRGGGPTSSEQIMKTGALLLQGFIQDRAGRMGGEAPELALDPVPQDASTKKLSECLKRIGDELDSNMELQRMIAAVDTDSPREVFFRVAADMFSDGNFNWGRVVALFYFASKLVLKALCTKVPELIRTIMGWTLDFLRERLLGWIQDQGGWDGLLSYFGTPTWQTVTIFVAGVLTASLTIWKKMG

- binding result: no binding (tested: 200 µM)
B1: biotin-KLPVM (SEQ ID NO:8), scrambled negative control peptide (peptide)
peptide: Biotin-KLPVM
notes: Synthetic scrambled control peptide, biotin-labeled, used at 200 uM in Dami cell lysate
